In publication PMC8130932 (PLoS Pathogens, 2021):

Tests used:
[1] = molecular target: T1, SARS-CoV-2 spike glycoprotein S1+S2 extracellular domain (SARS-CoV-2, reference sequence, UniProt P0DTC2); assay: ELISA
T1 construct: also called full-length spike glycoprotein ectodomain

[2] = molecular target: T2, SARS-CoV-2 spike glycoprotein, full-length, prefusion-stabilised, on MDCK-SIAT1 cells (SARS-CoV-2, reference sequence, UniProt P0DTC2, 986KV987 to 986PP987 | 682RRAR685 to 682GSAG685); assay: flow cytometry on cells; conditions: one partner purified
T2 construct: also called MDCK-Spike

Row | Binder | OD450 [1] [OD450] | binding result [2]
1 | EZ 7A (antibody, V domains shown, source: HEK293T, transfected; culture supernatant or purified) VH: EVQLVESGAEVKKPGESLKISCKGSGYSFTSYWIGWVRQMPGKGLEWMGIIYPGDSDTRYSPSFQGQVTISADKSISTAYLQWSSLKASDTAMYYCARGWVYRGFPYYGMDVWGQGTMVTVSS VL: QSALTQPRSVSGSPGQSVTISCTGTSSDVGGYNYVSWYQQHPGKAPKLMIYDVSKRPSGVPDRFSGSKSGNTASLTISGLQAEDEADYYCCSYAGSYTLVFGGGTKLTVL | 1.66 | binds
2 | FM 7B (antibody, V domains shown, source: HEK293T, transfected; culture supernatant or purified) VH: EVQLVQSGAEVKKPGASVKVSCKASGYTFTSYAMHWVRQAPGQRLEWMGWINTGNGNTKYSQKFQGRVTITRDTSASTAYMELSSLRSEDTAVYYCARDPTYCSSTSCYPFSWFDPWGQGTLVTVSS VL: NFMLTQPPSVSVAPGQTARITCGGNNIGSKSVHWYQQKPGQAPVLVVYDDSDRPSGIPERFSGSNSGNTATLTISRVEAGDEADYYCQVWDSTGDHSWVFGGGTKLTVL | 1.8 | binds
